How the values were obtained:
[1] = target: extracellular region of human R131 FcγRIIa, GST-tagged (human) (UniProt P12318); experiment: AlphaScreen competition: the antibody displaces biotinylated WT antibody (donor beads) from GST-tagged human R131 FcγRIIa (acceptor beads)
[2] = target: extracellular region of human V158 FcγRIIIa fused with glutathione S-transferase (GST) (human) (UniProt P08637); experiment: AlphaScreen competition as in Example 2 (biotinylated WT antibody on donor beads, GST-tagged human V158 FcγRIIIa on acceptor beads); Fc variants in the context of trastuzumab
[3] = target: F158 FcγRIIIa as used in SPR (UniProt P08637); experiment: SPR
His-tagged V158 FcγRIIIa = His-tagged V158 FcγRIIIa (UniProt P08637); experiment: SPR, receptor immobilized
[4] = target: extracellular region of human V158 FcγRIIIa fused with glutathione S-transferase (GST) (human) (UniProt P08637); experiment: AlphaScreen competition
bacterial protein A = bacterial protein A (UniProt P38507); experiment: AlphaScreen competition: the antibody displaces biotinylated WT alemtuzumab (donor beads) from protein A coupled directly to acceptor beads
[5] = target: FcγRIIIa on human PBMCs, heterozygous V158/F158 (human) (UniProt P08637); experiment: cell-based or functional assay

Work on S239D/A330L/I332E (antibody) yielded an IC50 (read off the curve) [1] of 7 nM.

In the case of S239D/A330Y/I332E (antibody), the IC50 (read off the curve) [1] is reported as 3 nM.

In the case of S239D/S298A/I332E (antibody), the IC50 (read off the curve) [1] is reported as 4 nM.

With S239N/A330Y/I332E (antibody) the IC50 (read off the curve) [1] was 6 nM.

With S239N/I332E (antibody) the IC50 (read off the curve) [2] was 700 pM.

In the case of “WT alemtuzumab (Campath), IgG1, expressed in 293T cells (antibody)”, the Kd [3] is reported as 730 nM and the Kd (His-tagged V158 FcγRIIIa) is reported as 68 nM.

“alemtuzumab Fc variant 192 (V264E/N297D/I332E by Table 60; printed V264I/N297D/I332E in Table 61) (antibody)” gave a FcγRIIIa Fold [4] of 0.05 fold vs WT.

With alemtuzumab I332E (antibody) the Kd [3] was 72 nM, the IC50 (read off the curve) (bacterial protein A) was 1e-09 2M and the Kd (His-tagged V158 FcγRIIIa) was 31 nM.

In the case of alemtuzumab S239D/I332E (antibody), the IC50 (read off the curve) [1] is reported as 3 nM, the ADCC EC50 [5] is reported as 3 ng/mL and the ADCC log(EC50) [5] is reported as 0.49 log(ng/ml).

For alemtuzumab S298A (antibody), the Kd [3] was 285 nM and the Kd (His-tagged V158 FcγRIIIa) was 52 nM.

“alemtuzumab S298A/E333A/K334A (antibody)” gave a Kd [3] of 156 nM and a Kd (His-tagged V158 FcγRIIIa) of 39 nM.

In the case of alemtuzumab V264I (antibody), the Kd [3] is reported as 550 nM, the IC50 (read off the curve) (bacterial protein A) is reported as 1e-09 2M and the Kd (His-tagged V158 FcγRIIIa) is reported as 64 nM.

alemtuzumab V264I/I332E (antibody) was tested, and the ADCC EC50 [5] was 4 ng/mL, the ADCC log(EC50) [5] was 0.6 log(ng/ml) and the Kd [3] was 52 nM. It also gave a Kd (His-tagged V158 FcγRIIIa) of 17 nM.
